From patent EP3409295A1 (priority 2016, dated 2017) come the findings set out here.

Where two headings read alike, the source gives them in different places.

The nature of one data set: in vivo. As to conditions: female, SD, rat, iv, 5 mg/kg.
The conditions of data set [1]: SD rats; for F: oral 50 mg/kg versus intravenous 10 mg/kg.
The next data set concerns ICR mice. As to conditions: mouse, in vivo, iv.
The mark [2] stands for this setting: intravenous administration, 10 mg/kg.

In the data set “in vivo”, `CN1CC[C@]23c4c5ccc(O)c4O[C@H]2[C@@H](OCCO[C@H]2C=C[C@H]4[C@H]6Cc7ccc(O)c8c7[C@@]4(CCN6C)[C@H]2O8)C=C[C@H]3[C@H]1C5` [α-6-O-PEG1-(morphine)2] yielded a level at 10 min of 891 ng/mL, a level at 1 h of 138 ng/mL, a level at 3 h of 38 ng/mL and a tissue level at time at 10 min of 687 ng/g. For the same molecule, in the data set “in vivo”, the tissue level at time at 1 h was 299 ng/g and the tissue level at time at 3 h turned out to be 183 ng/g. In data set [1] (setting [2]), this molecule had an AUCINF of 98 ng·h/mL, an AUClast of 83 ng·h/mL, a CL of 342 mL/min/k g and an MRTINF of 2.46 h. In data set [1] (setting [2]), this molecule came in with a T1/2 of 2.59 h, a Vss of 47.3 L/kg and a Vz of 72 L/kg. In data set [1], the F was found to be 3.7%. In data set [1] (oral administration, 50 mg/kg), this molecule gave an AUCINF of 92 ng·h/mL, an AUClast of 78 ng·h/mL, a Cmax of 56 and a T1/2 of 11 h. The Tmax in data set [1] (oral administration, 50 mg/kg) is 1.0 h.
On to `CN1CC[C@]23c4c5ccc(O)c4O[C@H]2[C@@H](OCCOCCO[C@H]2C=C[C@H]4[C@H]6Cc7ccc(O)c8c7[C@@]4(CCN6C)[C@H]2O8)C=C[C@H]3[C@H]1C5` [α-6-O-PEG2-(morphine)2], for which, in the data set “in vivo”, the level at 10 min turned out to be 1210 ng/mL, the level at 1 h is 123 ng/mL, the level at 3 h came out at 43 ng/mL and the tissue level at time at 10 min came out at 554 ng/g. In the data set “in vivo”, this molecule gave a tissue level at time at 1 h of 342 ng/g and a tissue level at time at 3 h of 221 ng/g. Moreover, in data set [1] (setting [2]), the AUCINF came to 107 ng·h/mL, the AUClast came out at 90 ng·h/mL, the CL is given as 307 mL/min/k g and the MRTINF came to 2.08 h. In data set [1] (setting [2]), this molecule registered a T1/2 of 2.88 h, a Vss of 37.2 L/kg and a Vz of 52.1 L/kg. In data set [1], this molecule registered an F of 4.8%. In data set [1] (oral administration, 50 mg/kg), this molecule had an AUCINF of 35 ng·h/mL, an AUClast of 27 ng·h/mL, a Cmax of 18 and a T1/2 of 4.0 h. In addition, the Tmax in data set [1] (oral administration, 50 mg/kg) stood at 2 h.
In “in vivo”, `CN1CC[C@]23c4c5ccc(O)c4O[C@H]2[C@@H](OCCOCCOCCO[C@H]2C=C[C@H]4[C@H]6Cc7ccc(O)c8c7[C@@]4(CCN6C)[C@H]2O8)C=C[C@H]3[C@H]1C5` [α-6-O-PEG3-(morphine)2] came in with a level at 10 min of 1020 ng/mL, a level at 1 h of 119 ng/mL, a level at 3 h of 32 ng/mL and a tissue level at time at 10 min of 387 ng/g. In “in vivo”, the tissue level at time at 1 h was found to be 262 ng/g and the tissue level at time at 3 h was determined as 167 ng/g. In addition, in data set [1] (setting [2]), the AUCINF stood at 112 ng·h/mL, the AUClast was found to be 104 ng·h/mL, the CL turned out to be 296 mL/min/k g and the MRTINF came out at 2.18 h. In data set [1] (setting [2]), this molecule came in with a T1/2 of 2.31 h, a Vss of 27.8 L/kg and a Vz of 43 L/kg. In data set [1], this molecule registered an F of 3.2%. In data set [1] (oral administration, 50 mg/kg), this molecule yielded an AUCINF of 18 ng·h/mL, an AUClast of 15 ng·h/mL, a Cmax of 12 and a T1/2 of 5.1 h. In addition, the Tmax in data set [1] (oral administration, 50 mg/kg) came to 2 h.
`COc1ccc2c3c1O[C@H]1[C@@H](OCCOCCOCCOCCO[C@H]4C=C[C@H]5[C@H]6Cc7ccc(OC)c8c7[C@@]5(CCN6C)[C@H]4O8)C=C[C@H]4[C@@H](C2)N(C)CC[C@@]341` [α-6-O-PEG4-(codeine)2]: the “Number of Writhing” value in the data set on ICR mice (30 mg/kg) is 31.3±4.1. In the data set “in vivo”, this molecule displayed a level at 10 min of 1660 ng/mL, a level at 1 h of 233 ng/mL, a level at 3 h of 43 ng/mL and a tissue level at time at 10 min of 121 ng/g. Further, in “in vivo”, the tissue level at time at 1 h was determined as 110 ng/g and the tissue level at time at 3 h was 107 ng/g.
For the molecule `CN1CC[C@]23c4c5ccc(O)c4O[C@H]2[C@@H](OCCOCCOCCOCCO[C@H]2C=C[C@H]4[C@H]6Cc7ccc(O)c8c7[C@@]4(CCN6C)[C@H]2O8)C=C[C@H]3[C@H]1C5` [α-6-O-PEG4-(morphine)2], the “Number of Writhing” value in the data set on ICR mice (10 mg/kg) is recorded as 20.1±2.3. In “in vivo”, the level at 10 min came out at 1120 ng/mL, the level at 1 h worked out at 114 ng/mL, the level at 3 h was determined as 42 ng/mL and the tissue level at time at 10 min worked out at 226 ng/g. In the data set “in vivo”, this molecule registered a tissue level at time at 1 h of 198 ng/g and a tissue level at time at 3 h of 164 ng/g. For the same molecule, in data set [1] (setting [2]), the AUCINF is 137 ng·h/mL, the AUClast was 122 ng·h/mL, the CL turned out to be 238 mL/min/k g and the MRTINF was 6.12 h. Also, in data set [1] (setting [2]), the T1/2 was 4.71 h, the Vss is reported as 64.3 L/kg and the volume of distribution (Vz) is listed as 94.3 L/kg. The F in data set [1] turned out to be 17.1%. Further, in data set [1] (oral administration, 50 mg/kg), the AUCINF turned out to be 81 ng·h/mL, the AUClast came to 70 ng·h/mL, the Cmax is 47 and the T1/2 came out at 6.4 h. In addition, the Tmax in data set [1] (oral administration, 50 mg/kg) is 3 h.
In the data set “in vivo”, `CN1CC[C@]23c4c5ccc(O)c4O[C@H]2[C@@H](OCCOCCOCCOCCOCCO[C@H]2C=C[C@H]4[C@H]6Cc7ccc(O)c8c7[C@@]4(CCN6C)[C@H]2O8)C=C[C@H]3[C@H]1C5` [α-6-O-PEG5-(morphine)2] yielded a level at 10 min of 926 ng/mL, a level at 1 h of 101 ng/mL, a level at 3 h of 51 ng/mL and a tissue level at time at 10 min of 125 ng/g. Also, in “in vivo”, the tissue level at time at 1 h was 123 ng/g and the tissue level at time at 3 h is 95 ng/g. Moreover, in data set [1] (setting [2]), the AUCINF was 128 ng·h/mL, the AUClast worked out at 109 ng·h/mL, the CL was 261 mL/min/k g and the MRTINF amounted to 3.52 h. In data set [1] (setting [2]), this molecule came in with a T1/2 of 3.71 h, a Vss of 55.2 L/kg and a Vz of 84 L/kg. In addition, the F in data set [1] worked out at 28.2%. In addition, in data set [1] (oral administration, 50 mg/kg), the AUCINF came out at 156 ng·h/mL, the AUClast was found to be 129 ng·h/mL, the Cmax was 75 and the T1/2 was 7.8 h. The Tmax in data set [1] (oral administration, 50 mg/kg) was determined as 2.0 h.
In the case of `COc1ccc2c3c1O[C@H]1[C@@H](OCCOCCOCCOCCOCCOCCO[C@H]4C=C[C@H]5[C@H]6Cc7ccc(OC)c8c7[C@@]5(CCN6C)[C@H]4O8)C=C[C@H]4[C@@H](C2)N(C)CC[C@@]341` [α-6-O-PEG6-(codeine)2], the “Number of Writhing” value in the data set with ICR mice (30 mg/kg) is reported as 34.1±3.3. For the same molecule, in “in vivo”, the level at 10 min was found to be 1740 ng/mL, the level at 1 h amounted to 445 ng/mL, the level at 3 h was 67 ng/mL and the tissue level at time at 10 min stood at 102 ng/g. In the data set “in vivo”, this molecule showed a tissue level at time at 1 h of 100 ng/g and a tissue level at time at 3 h of 97 ng/g.
In “in vivo”, `CN1CC[C@]23c4c5ccc(O)c4O[C@H]2[C@@H](OCCOCCOCCOCCOCCOCCOCCO[C@H]2C=C[C@H]4[C@H]6Cc7ccc(O)c8c7[C@@]4(CCN6C)[C@H]2O8)C=C[C@H]3[C@H]1C5` [α-6-O-PEG7-(morphine)2] registered a level at 10 min of 1170 ng/mL, a level at 1 h of 117 ng/mL, a level at 3 h of 71 ng/mL and a tissue level at time at 10 min of 177 ng/g. In the data set “in vivo”, this molecule showed a tissue level at time at 1 h of 111 ng/g and a tissue level at time at 3 h of 105 ng/g.
In the data set “in vivo”, `CN1CC[C@]23c4c5ccc(O)c4O[C@H]2[C@@H](OCCOCCOCCOCCOCCOCCOCCOCCO[C@H]2C=C[C@H]4[C@H]6Cc7ccc(O)c8c7[C@@]4(CCN6C)[C@H]2O8)C=C[C@H]3[C@H]1C5` [α-6-O-PEG8-(morphine)2] came in with a level at 10 min of 1230 ng/mL, a level at 1 h of 167 ng/mL, a level at 3 h of 90 ng/mL and a tissue level at time at 10 min of 140 ng/g. In “in vivo”, the tissue level at time at 1 h worked out at 153 ng/g and the tissue level at time at 3 h was found to be 127 ng/g. In addition, in data set [1] (setting [2]), the AUCINF is 188 ng·h/mL, the AUClast amounted to 162 ng·h/mL, the CL is listed as 221 mL/min/k g and the MRTINF is 10.8 h. In addition, in data set [1] (setting [2]), the T1/2 came out at 6.83 h, the Vss is 84.7 L/kg and the volume of distribution (Vz) is on record as 125.2 L/kg. Moreover, in data set [1], the F stood at 7.6%. In data set [1] (oral administration, 50 mg/kg), this molecule registered an AUCINF of 31 ng·h/mL, an AUClast of 22 ng·h/mL, a Cmax of 22 and a T1/2 of 5.2 h. For the same molecule, the Tmax in data set [1] (oral administration, 50 mg/kg) was determined as 3 h.
For the molecule `CN1CC[C@]23c4c5ccc(O)c4O[C@H]2[C@@H](OCCOCCOCCOCCOCCOCCOCCOCCOCCO[C@H]2C=C[C@H]4[C@H]6Cc7ccc(O)c8c7[C@@]4(CCN6C)[C@H]2O8)C=C[C@H]3[C@H]1C5` [α-6-O-PEG9-(morphine)2], in “in vivo”, the level at 10 min came to 1230 ng/mL, the level at 1 h came to 201 ng/mL, the level at 3 h turned out to be 101 ng/mL and the tissue level at time at 10 min worked out at 152 ng/g. Besides, in the data set “in vivo”, the tissue level at time at 1 h worked out at 125 ng/g and the tissue level at time at 3 h was 123 ng/g. In data set [1] (setting [2]), this molecule registered an AUCINF of 259 ng·h/mL, an AUClast of 221 ng·h/mL, a CL of 166 mL/min/k g and an MRTINF of 7.91 h. In data set [1] (setting [2]), this molecule had a T1/2 of 8.33 h, a Vss of 60.1 L/kg and a Vz of 92 L/kg. Moreover, the F in data set [1] came out at 5.2%. Moreover, in data set [1] (oral administration, 50 mg/kg), the AUCINF came out at 17 ng·h/mL, the AUClast came to 11 ng·h/mL, the Cmax was found to be 11 and the T1/2 worked out at 11.5 h. For the same molecule, the Tmax in data set [1] (oral administration, 50 mg/kg) is 3.0 h.
For `COCCOCCOCCOCCO[C@H]1C=C[C@H]2[C@H]3Cc4ccc(O)c5c4[C@@]2(CCN3C)[C@H]1O5` [α-6-O-mPEG4-morphine, reference compound], the “Number of Writhing” value with ICR mice (10 mg/kg) was 12.1±2.3.
On the same count and under the same terms, under `COCCOCCOCCOCCOCCOCCO[C@H]1C=C[C@H]2[C@H]3Cc4ccc(O)c5c4[C@@]2(CCN3C)[C@H]1O5` [α-6-O-mPEG6-morphine, reference compound] stands 15.3±3.4.

As a reminder, the Vss is a proportionality between amount in the body and measured concentration, not a real space. Low readings indicate little distribution into tissue, high ones wide distribution into tissue. By Vz is commonly meant the apparent volume that relates the amount in the body to the concentration in plasma or blood. A higher Vz goes with extensive tissue distribution. The term Tmax denotes the time at which the peak concentration occurs.
